# Data as given in patent CN110294802A.
# B1: 10G12抗体 (antibody, V domains shown)
# VH: QVQLKQPGAELVRPGASVKLSCKASGYSFTNYWMHWMKQRPGQGLEWIGMIDPSDSETRLNQKFKDKATLTVDKSSSIAYMQLSSPTSEDSAVYYCARDRYDGGAWFDYWSQGTLVT
# VL: DIVMTQTPLSLPVSLGDQASISCRSSQSLVHSNGNTYLHWYLQKPGQSPKLLIYKVSNRFSGVPDRFSVSGSGTDFTLKISRVEAEDLGVYFCSQSTHVPPTFGGGTKLEIK
# Target: HAdV7灭活病毒 (human/CHN/GZ6965/2001)
binder,measurement,value
B1,EC50,0.14 nM
